According to patent US20230295308A1, “ANTAGONISTIC BIPARATOPIC ANTIBODIES THAT SPECIFICALLY BIND FIBROBLAST GROWTH FACTOR RECEPTOR 2 AND METHODS OF USING SAME” (The Broad Institute, Inc., priority 2020, published 2023):
Entries after “also recorded” stand apart in the source; their conditions may differ. Each block holds one molecule with its values, some of them ahead of it.

Assays:
[1] = target: FGFR2 on SNU-16 gastric cancer cell line with FGFR2 amplification (UniProt P21802); experiment: FACS on SNU-16 cells, % cells with FITC+ against log antibody concentration; Kd printed in the legend box [cont.]
[2] = target: FGFR2b alpha IIIb antigen (UniProt P21802); experiment: SPR (Biacore), antibody immobilized, FGFR2b alpha IIIb in flow
[3] = target: FGFR2 on SNU-16 gastric cancer cell line with FGFR2 amplification (UniProt P21802); experiment: FACS on SNU-16 cells, % cells with FITC+ [cont.]
[4] = target: FGFR2 on SNU-16 gastric cancer cell line with FGFR2 amplification (UniProt P21802); experiment: row 'Kd (nM) (FACS)'; FACS on SNU-16 cells
[5] = target: FGFR2 on SNU-16 gastric cancer cell line with FGFR2 amplification (UniProt P21802); experiment: FACS on SNU-16 cells, % No. of cells with FITC+ [cont.]
[6] = target: FGFR2b alpha IIIb antigen (UniProt P21802); experiment: SPR (Biacore), antibody on chip, FGFR2b alpha IIIb antigen
[7] = system: NIH3T3 cells overexpressing FGFR2-BICC1 fusion; experiment: NIH3T3 FGFR2-BICC1 cell confluency, Incucyte (FIGS. 19A-19E); assay type: cell-based; details: 60 hours, 0.013-1 μM
Method: FIGS. 19A-19E present graphs showing the ability of biparatopic antibodies to impact FGFR2-fusion driven cell growth in NIH3T3 cells molecularly engineered to overexpress FGFR2-BICC1 fusion. […] The nomenclature of the biparatopic antibodies is based on the designations and descriptions of the parental antibodies presented in FIG. 7B.
The impact of biparatopic antibodies on FGFR2-fusion driven cell growth was assessed in a cell-based assay using biparatopic antibodies that bind to the ECD of FGFR2 and generated as described supra (Example 4). As described herein, the biparatopic antibodies were added to cultures of cells (e.g., NIH3T3 cells or BaF3 cells) molecularly engineered to overexpress FGFR2 fusion.
For assays using NIH3T3 cells, (FIGS. 19A-19E), NIH3T3 cells overexpressing a FGFR2-BICC1 fusion construct were plated in 384 black well plates at a concentration of 1000 cells/well overnight. 6 parental antibodies and 13 biparatopic antibodies were added to each well in duplicates at various concentrations ranging from 1 μM to 0.013 μM (1 μM, 0.833 μM, 0.600 μM, 0.450 μM, 0.316 μM, 0.233 μM, 0.166 μM, 0.125 μM, 0.091 μM, 0.066 μM, 0.048 μM, 0.035 μM, 0.025 μM, 0.018 μM, and 0.013 μM). The cell confluency was measured using Incucyte at 60 hours post treatment, and the IC50 curves were generated using non-linear fit in PRISM 9 software.

FGFR2b alpha IIIb = FGFR2b alpha IIIb (Homo sapiens, UniProt P21802); experiment: Surface Plasmon Resonance (SPR) binding; details: FGFR2b alpha IIIb antigen
Sequence of FGFR2b alpha IIIb (P21802 22-378 isoform P21802-3): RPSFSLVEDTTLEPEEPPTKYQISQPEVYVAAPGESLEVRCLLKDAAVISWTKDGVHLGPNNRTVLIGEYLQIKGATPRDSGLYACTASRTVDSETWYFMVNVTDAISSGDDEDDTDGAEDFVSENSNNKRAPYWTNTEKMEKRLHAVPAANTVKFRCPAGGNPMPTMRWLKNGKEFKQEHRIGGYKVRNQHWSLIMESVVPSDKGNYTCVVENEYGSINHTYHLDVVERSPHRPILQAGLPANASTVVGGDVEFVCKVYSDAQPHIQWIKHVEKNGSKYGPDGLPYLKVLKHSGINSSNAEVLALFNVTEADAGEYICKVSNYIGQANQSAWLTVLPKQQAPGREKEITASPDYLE
Source text: FIGS. 17A-17C provide a schematic and tabular data related to assessments made to compare the avidity of biparatopic antibodies to that of their parental (bivalent monospecific) antibodies.
Surface Plasmon Resonance (SPR) as known in the art was used to determine the binding affinities of biparatopic antibodies. The SPR-based binding method involves immobilization of a ligand (antibody) on the surface of a sensor chip. The binding partner of interest or an analyte (FGFR2 ECD) flow through the flow channel. Different concentrations of an analyte flow over the ligand, and the interactions of ligand-analyte can be characterized. The SPR signal originates from changes in the refractive index of the […] at the surface of the sensor chip. The increase in mass associated with a binding event causes a proportional increase in the refractive index, which is observed as a change in response-resonance signal. In brief, for the experiments using the antibodies described herein, the SPR assay was carried out by immobilizing antibodies (used as […]) at a concentration ranging from 1-1000 nM and flow-through FGFR2b alpha IIIb antigen (used as […]). The antibody kinetic data for the interaction with FGFR2b alpha IIb antigen were fitted to the 2-state and 1-1 binding models using Biocore software. The mean and standard deviation KD values are derived from at least three independent runs.
Using SPR, the kinetics of 6 monospecific and 13 biparatopic antibodies for binding to a single antigen, FGFR2b alpha IIb, was measured so as to compare avidity of the biparatopic antibodies to their parental antibodies. Without wishing to be bound by theory, it was expected that the biparatopic antibodies would bind to the FGFR2 antigen more tightly than their parental antibodies and that the tighter binding biparatopic antibodies among the antibodies that were assessed would be more efficient in blocking FGFR2 dimerization (FIG. 17A), thereby leading to inhibition or blocking of constitutive FGFR2 signaling and/or oncogenic transformation. […]

15AA-Nterm FGFR2 = target: T1, 15AA-Nterm FGFR2; experiment: row 'Kd (nM) (patent)', value quoted from the source patent; method: Indirect ELISA-15AA-Nterm FGFR2
T1 peptide: RPSFSLVEDTTLEPE

[8] = system: FGFR2-PHDGH fusion expressing BaF3 cells; experiment: growth of BaF3 cells expressing FGFR2-PHGDH fusion, absence of FGF ligands (FIG. 9); assay type: cell-based; details: BaF3 FGFR2-PHGDH fusion
Method: Antibodies A-F were tested to determine whether they could inhibit the ligand-induced growth of BaF3 cells expressing FGFR2IIIb. Antibodies C, D, and E, which bind FGFR2 Ig-2 and Ig-3, were effective in blocking ligand-induced growth of BaF3 cells expressing wild-type FGFR2IIIb (FIG. 8). The effects of antibodies A-F were then tested on BaF3 cells expressing FGFR2-PHDGH fusions. […] Antibody F inhibited the FGFR2-PHDGH activating fusion in BaF3 cells (FIG. 9).

[9] = target: FGFR2b alpha IIIb antigen (UniProt P21802); experiment: SPR (Biacore), KD matrix by the two arms; unit M from FIG. 17B and paragraph 180

Kd [1]: 0.13 nM
Binding Stoichiometry [2]: 1.9
EC50 (read off the curve) [3]: 0.02 µg/mL
Kd [4]: 0.13 nM
EC50 (read off the curve) [5]: 0.02 µg/mL
Kd [6]: 1.7 nM
B1: 10164 (antibody, V domains shown)
VH: QVQLVESGGGLVKPGGSLRLSCAASGFTFSSYALSWVRQAPGKGLEWVGRIRSKIDGGTTDYAAPVKGRFTISRDDSKNTLYLQMNSLKTEDTAVYYCARDRSPSDSSAFAIWGQGTLVTVSS
VL: DIELTQPPSVSVSPGQTASITCSGDNLGSQYVDWYQQKPGQAPVLVIYDDNDRPSGIPERFSGSNSGNTATLTISGTQAEDEADYYCQSWDSLSVVFGGGTKLTVLG
notes: the duobody scheme implies IgG1 with K409R or F405L; also called Antibody C; N10164

B2: GE/N10: biparatopic antibody combining parental antibodies GE (Antibody D) and N10 (Antibody C) (antibody, V domains shown)
VH 1: EVQLVESGGGLVQPGGSLRLSCAASGFPFTSTGISWVRQAPGKGLEWVGRTHLGDGSTNYADSVKGRFTISADTSKNTAYLQMNSLRAEDTAVYYCARTYGIYDTYDMYTEYVMDYWGQGTLVTVSS
VL 1: DIQMTQSPSSLSASVGDRVTITCRASQDVDTSLAWYKQKPGKAPKLLIYSASFLYSGVPSRFSGSGSGTDFTLTISSLQPEDFATYYCQQSTGHPQTFGQGTKVEIK
VH 2: B1 VH
VL 2: B1 VL
inhibition of growth of NIH3T3 cells overexpressing FGFR2-BICC1 compared to parental antibodies [7]: more efficient and potent; also recorded: more effective and potent

Kd [1]: 30.7 nM
Binding Stoichiometry [2]: 1.7
EC50 (read off the curve) [3]: 0.1 µg/mL
Kd (FGFR2b alpha IIIb): 16 nM
Kd (15AA-Nterm FGFR2): 105 nM
Kd [4]: 30.7 nM
EC50 (read off the curve) [5]: 4 µg/mL
Kd [6]: 16 nM
B3: M048-D01 (antibody, V domains shown)
VH: EVQLLESGGGLVQPGGSLRLSCAASGFTFSSYAMSWVRQAPGKGLEWVSAISGSGTSTYYADSVKGRFTISRDNSKNTLYLQMNSLRAEDTAVYYCARVRYNWNHGDWFDPWGQGTLVTVSS
VL: QSVLTQPPSASGTPGQRVTISCSGSSSNIGNNYVSWYQQLPGTAPKLLIYENYNRPAGVPDRFSGSKSGTSASLAISGLRSEDEADYYCSSWDDSLNYWVFGGGTKLTVLG
notes: Parental bivalent monospecific antibody; also called Antibody A; Bayer
agonist activity in the absence of FGF ligands [8]: agonist activity

Binding Stoichiometry [2]: 1.3
Kd [2]: 0.37 nM
Kd [9]: 0.37 nM
B4: Biparatopic antibody B/GE (bispecific antibody, V domains shown)
VH 1: B3 VH
VL 1: B3 VL
VH 2: B2 VH 1
VL 2: B2 VL 1
inhibition of growth of NIH3T3 cells overexpressing FGFR2-BICC1 compared to parental antibodies [7]: more efficient and potent; also recorded: more effective and potent

Binding Stoichiometry [2]: 1.2
Kd [2]: 0.87 nM
Kd [9]: 0.87 nM
B5: FGFR_GA/GE_FL (bispecific antibody, part only; not given: Constant regions with duobody mutation, part only)
heavy chain, GA arm, part: QVQLVQSGAEVKKPGSSVKVSCKASGYIFTTYNVHWVRQAPGQGLEWIGSIYPDNGDTSYNQNFKGRATITADKSTSTAYMELSSLRSEDTAVYYCARGDFAYWGQGTLVTVSS
light chain, GA arm: DIQMTQSPSSLSASVGDRVTITCKASQGVSNDYAWYQQKPGKAPKLLIYSASYRYTGVPSRFSGSGSGTDFTFTISSLQPEDIATYYCQQHSTTPYTFGQGTKLEIK
heavy chain, GE arm, part: B2 VH 1
light chain, GE arm: B2 VL 1

Binding Stoichiometry [2]: 1.3
Kd [2]: 0.42 nM
Kd [9]: 0.42 nM
B6: Biparatopic antibody GE/N12 (bispecific antibody, V domains shown)
VH 1: B2 VH 1
VL 1: B2 VL 1
VH 2: QVQLVQSGAEVKKPGESLKISCKGSGYSFTNYYIHWVRQMPGKGLEWMGAIYPDNSDTTYSPSFQGQVTISADKSISTAYLQWSSLKASDTAMYYCARGADIWGQGTLVTVSS
VL 2: DIQMTQSPSSLSASVGDRVTITCRASQDIDPYLSNWYQQKPGKAPKLLIYDASNLQSGVPSRFSGSGSGTDFTLTISSLQPEDFATYYCQQTTSHPYTFGQGTKVEIK
inhibition of growth of NIH3T3 cells overexpressing FGFR2-BICC1 compared to parental antibodies [7]: more efficient and potent; also recorded: more effective and potent
